From publication PMC11569192 (Nature Communications, 2024)

Columns and labels:
[1] = target: DS-Cav1 (respiratory syncytial virus subtype A, strain A2 | not stated) (UniProt P03420); experiment: SEC
[2] = target: DS-Cav1-His6 (respiratory syncytial virus subtype A, strain A2 | not stated) (UniProt P03420); experiment: cross-linking
[3] = target: DS-Cav1-His6 (respiratory syncytial virus subtype A, strain A2 | not stated) (UniProt P03420); experiment: negative-stain EM
[4] = target: DS-Cav1-His6 (respiratory syncytial virus subtype A, strain A2 | not stated) (UniProt P03420); experiment: SEC
[5] = target: SC-TM-His6 (respiratory syncytial virus subtype A, strain A2 | not stated) (UniProt P03420); experiment: cross-linking
[6] = target: SC-TM-His6 (respiratory syncytial virus subtype A, strain A2 | not stated) (UniProt P03420); experiment: SEC
[7] = target: sc9-10 DS-Cav1 (respiratory syncytial virus subtype A, strain A2 | not stated) (UniProt P03420); experiment: SEC
[8] = target: sc9-10 DS-Cav1-His6 (respiratory syncytial virus subtype A, strain A2 | not stated) (UniProt P03420); experiment: cross-linking
[9] = target: sc9-10 DS-Cav1-His6 (respiratory syncytial virus subtype A, strain A2 | not stated) (UniProt P03420); experiment: SEC
sc9-10 DS-Cav1 = target: T1, sc9-10 DS-Cav1 (Human respiratory syncytial virus A, …, S215P | A149C | Y458C | S46G | K465Q); experiment: cell-based or functional assay
T1 chain: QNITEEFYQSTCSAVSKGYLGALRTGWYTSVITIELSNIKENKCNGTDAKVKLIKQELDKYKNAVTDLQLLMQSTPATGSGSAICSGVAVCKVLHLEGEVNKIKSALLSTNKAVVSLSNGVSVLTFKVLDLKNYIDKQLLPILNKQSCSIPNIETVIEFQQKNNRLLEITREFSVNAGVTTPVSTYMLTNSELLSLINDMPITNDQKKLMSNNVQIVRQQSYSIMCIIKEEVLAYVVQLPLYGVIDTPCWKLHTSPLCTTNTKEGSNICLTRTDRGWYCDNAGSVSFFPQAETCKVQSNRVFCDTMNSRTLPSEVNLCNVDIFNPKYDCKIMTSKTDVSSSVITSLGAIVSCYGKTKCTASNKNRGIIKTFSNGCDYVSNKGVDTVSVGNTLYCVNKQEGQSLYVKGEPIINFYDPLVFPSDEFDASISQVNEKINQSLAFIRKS

847A-His6 = 847A-His6 (human respiratory syncytial virus A, …, UniProt A0A7D5GVC1, I148C | D486S); experiment: ELISA
UFCM1-P2 = UFCM1-P2 (human metapneumovirus, Q1A2Z0 …, UniProt Q1A2Z0, E80D | T127C | N153C | A185P | V155P); experiment: ELISA
UFCM1 = UFCM1 (human metapneumovirus, Q1A2Z0 …, UniProt Q1A2Z0, E80D | T127C | N153C | A185P); experiment: ELISA
UFCM1-P2-iSS = target: T2, UFCM1-P2-iSS (Human metapneumovirus, strain NL/1/00 …, stabilised); experiment: negative-stain EM
T2 chain: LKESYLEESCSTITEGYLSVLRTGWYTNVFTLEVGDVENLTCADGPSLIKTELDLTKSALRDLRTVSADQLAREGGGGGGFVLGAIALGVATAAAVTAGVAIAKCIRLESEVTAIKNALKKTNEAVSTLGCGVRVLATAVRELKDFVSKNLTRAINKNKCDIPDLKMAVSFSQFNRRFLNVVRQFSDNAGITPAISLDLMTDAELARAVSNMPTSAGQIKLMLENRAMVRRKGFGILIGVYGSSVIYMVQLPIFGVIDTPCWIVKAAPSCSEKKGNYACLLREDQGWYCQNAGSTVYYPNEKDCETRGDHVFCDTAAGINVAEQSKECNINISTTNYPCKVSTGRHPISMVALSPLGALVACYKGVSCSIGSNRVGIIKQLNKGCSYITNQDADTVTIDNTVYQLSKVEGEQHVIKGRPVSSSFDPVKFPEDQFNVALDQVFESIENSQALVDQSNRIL

For “DS-Cav1 (from UniProt P03420 137-513) (domain or fragment)”, the stoichiometry N [1] was 3.

For “DS-Cav1-His6 (from UniProt P03420 137-513) (domain or fragment)”, the stoichiometry N [2] was 3, the stoichiometry N [3] was 3 and the stoichiometry N [4] was 3.

“SC-TM-His6 (from UniProt P03420 26-513) (domain or fragment)” showed a stoichiometry N [5] of 3 and a stoichiometry N [6] of 3.

“sc9-10 DS-Cav1 (from UniProt P03420 26-513) (domain or fragment)” was tested, and the stoichiometry N [7] was 3.

In the case of “sc9-10 DS-Cav1-His6 (from UniProt P03420 26-513) (domain or fragment)”, the stoichiometry N [8] is reported as 3 and the stoichiometry N [9] is reported as 3.

B1: A4 scFv-Fc (scFv, V domains shown)
VH: EVQLVESGGGLVQPGGSLRLSCAASGFTFTTYAMHWVRQSPGKGLEWLASISYDGTSQYYAESVKGRFTVSRDNSKKTLLLQVNSLRPEDTAVYYCAGSPSGHYSWLGYFYAMDVWGQGTLVTVSS
VL: QSALTQPASVSGSPGQSITISCTGASSDVGGYDYVSWYQQHPGKAPKLLIYDVSDRPSGVSNRFSGSKSGNTASLTISGLQTEDEADYYCSSYTSKNTLIFGGGTKLTVL
B1 was tested, and the “live RSV (RSV-A2-GFP) neutralization, IC50, scFv-Fc form” value (sc9-10 DS-Cav1) was 2.1 ng/mL.

B2: MPE8 IgG (antibody, V domains shown)
VH: EVQLVESGGGLVKPGGSLRLSCAASGFTFSSYSMNWVRQAPGKGLEWVSSISASSSYSDYADSAKGRFTISRDNAKTSLFLQMNSLRAEDTAIYFCARARATGYSSITPYFDIWGQGTLVTVSS
VL: QSVVTQTPSVSGAPGQRVTISCTGSSSNIGAGYDVHWYQQLPGTAPKLLIYDNNNRPSGVPDRFSASKSGTSASLAITGLQAEDEADYYCQSYDRNLSGVFGTGTKVTVL
B2: binds (847A-His6); binds (UFCM1-P2); binds (UFCM1).

B3: MPE8 Fab (Fab, V domains shown)
VH: B2 VH
VL: B2 VL
With B3 the “stoichiometry N” value (UFCM1-P2-iSS) was 3 Fabs per trimer.
